Measurements as given in patent US7498429B2, “AHAS small subunit promoter” (priority 1998, dated 2009).

Assays:
Type in all cases: biochemical
[1] = target: T1, Arabidopsis AHAS large subunit (wild type) (Arabidopsis thaliana, UniProt P17597); experiment: AHAS assay of purified wild type large subunit with added substances
T1 construct: GST (glutathione transferase) (N, cleaved yes); made in house; host or cells: E. coli DH5alpha
T1 sequence (P17597 56-670): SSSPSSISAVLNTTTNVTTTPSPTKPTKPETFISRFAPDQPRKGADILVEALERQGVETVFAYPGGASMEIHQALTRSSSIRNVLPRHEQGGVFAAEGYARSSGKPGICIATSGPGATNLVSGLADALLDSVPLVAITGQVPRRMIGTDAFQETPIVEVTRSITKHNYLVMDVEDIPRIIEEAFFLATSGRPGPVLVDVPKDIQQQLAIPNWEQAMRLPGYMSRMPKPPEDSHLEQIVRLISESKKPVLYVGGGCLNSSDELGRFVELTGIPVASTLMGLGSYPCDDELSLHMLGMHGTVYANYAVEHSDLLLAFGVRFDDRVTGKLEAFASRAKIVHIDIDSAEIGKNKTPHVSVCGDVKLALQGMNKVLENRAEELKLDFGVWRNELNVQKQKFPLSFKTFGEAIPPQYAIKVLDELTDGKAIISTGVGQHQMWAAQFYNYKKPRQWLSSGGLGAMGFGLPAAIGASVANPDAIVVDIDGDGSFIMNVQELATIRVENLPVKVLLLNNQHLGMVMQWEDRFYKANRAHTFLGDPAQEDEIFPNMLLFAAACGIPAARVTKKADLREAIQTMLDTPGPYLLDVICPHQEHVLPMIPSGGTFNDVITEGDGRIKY
Protocol: (§1) AHAS assays. AHAS assays were performed with slight modification as described by Singh et al. {Singh et al., 1988}. AHAS activity was assayed in 1× AHAS assay buffer (50 mM HEPES pH 7.0, 100 mM pyruvate, 10 mM MgCl2, 1 mM TPP, and 50 μM FAD). A final concentration of 1× assay buffer was obtained either by dilution of enzyme extracted in 2× assay buffer or addition of enzyme to make a final concentration 1×AHAS assay buffer. All assays containing imazethapyr and associated controls contained a final concentration of 5% DMSO due to addition of imazethapyr to assay mixtures as a 50% DMSO solution. Assays were performed in a final volume of 250 μL at 37° C. in microtiter plates.
Effects of Dithiothreitol. The effect of dithiothreitol (DTT) in Phosphate Buffered Saline (MTPBS) on AHAS large subunit enzyme activity was measured. Experiments were carried out with or without 3 mM DTT in the purified protein solution of large subunit. The assays were conducted as above. […] Moreover, in the absence of DTT, large subunit activity degraded over the 4 day period (FIG. 6).
Effects of Bovine Serum Albumin. To determine whether the enhancement of the large subunit was specific to the small subunit, another nonspecific control which tested the effects of bovine serum albumin was run. To a fixed amount of large subunit an increasing amount of a 0.25 mg/mil BSA solution was added.
(§2) The following experiments used the small subunit and large subunit proteins purified as described in Example 2 above. The plasmid F1 containing the AHAS small subunit gene from Arabidopsis was expressed in E. coli and partially purified. The protein concentration of the sample was determined and aliquots of increasing concentration were added to a constant amount of purified Arabidopsis large subunit.

[2] = target: T2, herbicide-resistant mutant (Met124 His) large subunit Arabidopsis AHAS protein (Arabidopsis thaliana, UniProt P17597, M124H); experiment: AHAS assay of herbicide-resistant mutant large subunit with added small subunit; settings: mutant with methionine at position 124 substituted by histidine (FIG. 9)
T2 construct: GST (glutathione transferase) (N, cleaved yes); made in house; host or cells: E. coli DH5alpha
Protocol: as §1, §2
In another experiment, a herbicide-resistant mutant of the large subunit enzyme (substitution mutation at position 124, methionine substituted by histidine) was used.

[3] = target: T3, Arabidopsis AHAS large subunit (Arabidopsis thaliana, UniProt P17597); experiment: Stability of AHAS large subunit activity on storage in MTPBS with or without DTT
T3 construct: GST (glutathione transferase) (N, cleaved yes); made in house; host or cells: E. coli DH5alpha
T3 sequence (P17597 56-670): T1 sequence (P17597 56-670)
Protocol: The cell pellet from 1 liter of cell culture was resuspended in 10 ml of MTPBS (150 mM NaCl, 16 mM Na2HPO4, 4 mM NaH2PO4), pH 7.3 (Smith and Johnson Gene 67: 31-40, […]) and 100 μg/ml of lysozyme was added. The suspension was adjusted to 5 mM dithiothreitol. Triton X-100 was added to a final concentration of 1% by addition of a 20% Triton X-100 in MTPBS solution. The cells were shaken gently at 30° C. for 15 minutes and were then cooled to 4° C. on ice and sonicated for 8-10 seconds using a microtip probe, duty cycle 70%, output control at maximum for the microtip pulser. The sonicate was centrifuged two times in a J20 rotor, 17,000 rpm, 4° C., 10 minutes, to remove insoluble material. Lysate was added to 150 mg (dry weight) of glutathione agarose (equilibrated and hydrated in MTPBS) and inverted for 30 minutes at 4° C. Agarose was settled by centrifugation at 500 rpm for 5 minutes and was washed with ice cold MTPBS by repeated centrifugation cycles until the A280 of the wash matched that of MTPBS. Agarose was transferred to an appropriate column for elution. Fusion proteins were eluted with 50 mM Tris-HCl, 5 mM reduced glutathione into 1 ml fractions. […]
Effects of Dithiothreitol. The effect of dithiothreitol (DTT) in Phosphate Buffered Saline (MTPBS) on AHAS large subunit enzyme activity was measured. […]

T2 sequence (P17597 56-670 M124H): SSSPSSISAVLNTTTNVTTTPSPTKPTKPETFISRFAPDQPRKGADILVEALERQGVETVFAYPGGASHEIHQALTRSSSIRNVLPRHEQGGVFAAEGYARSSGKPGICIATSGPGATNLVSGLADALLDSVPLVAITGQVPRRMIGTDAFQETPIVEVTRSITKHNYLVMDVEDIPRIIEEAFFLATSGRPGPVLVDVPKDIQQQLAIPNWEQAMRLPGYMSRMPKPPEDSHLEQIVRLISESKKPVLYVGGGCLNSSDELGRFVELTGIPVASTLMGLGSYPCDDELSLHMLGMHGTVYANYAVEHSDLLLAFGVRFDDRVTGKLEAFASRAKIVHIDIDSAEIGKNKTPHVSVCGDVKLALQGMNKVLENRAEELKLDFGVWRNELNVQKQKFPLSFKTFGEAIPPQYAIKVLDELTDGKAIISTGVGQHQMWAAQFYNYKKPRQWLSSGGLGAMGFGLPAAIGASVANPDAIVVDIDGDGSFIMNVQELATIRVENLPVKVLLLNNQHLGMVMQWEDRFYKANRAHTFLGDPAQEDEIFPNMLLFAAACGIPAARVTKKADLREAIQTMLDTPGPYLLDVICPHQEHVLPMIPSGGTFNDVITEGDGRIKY
T2 sequence (Q93YZ7 233-491 P488L, further chain): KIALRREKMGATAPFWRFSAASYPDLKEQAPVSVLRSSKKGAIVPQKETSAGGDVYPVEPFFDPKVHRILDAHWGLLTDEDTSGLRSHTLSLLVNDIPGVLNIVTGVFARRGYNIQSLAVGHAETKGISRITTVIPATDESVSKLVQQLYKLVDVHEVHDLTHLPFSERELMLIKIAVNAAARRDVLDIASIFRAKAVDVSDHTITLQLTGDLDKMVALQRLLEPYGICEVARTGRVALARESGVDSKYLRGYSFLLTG

O[C@H](CS)[C@H](O)CS (racemic) [DTT, dithiothreitol]
effect on catalytic activity of the AHAS large subunit ([1]; 3 mM DTT in MTPBS versus no DTT (FIG. 5 vs FIG. 6)): enhanced dramatically | stabilization and activation of the enzyme compared with other sulfhydryl reductants ([1]; versus reduced glutathione and β-mercaptoethanol): better than reduced glutathione and β-mercaptoethanol

Arabidopsis small subunit protein: Arabidopsis AHAS small subunit expressed from plasmid F1 in E. coli and partially purified
effect on enzymatic activity of the catalytic large subunit ([1]; increasing small subunit (from plasmid F1) added to constant wild type large subunit (FIG. 8)): enhances the level of enzymatic activity | effect on enzymatic activity of herbicide-resistant form of the large subunit [2]: also enhanced

B1: Arabidopsis large subunit: purified wild type Arabidopsis AHAS large subunit protein expressed in E. coli (pAC774) (protein)
chain: SSISAVLNTTTNVTTTPSPTKPTKPETFISRFAPDQPRKGADILVEALERQGVETVFAYPGGASMEIHQALTRSSSIRNVLPRHEQGGVFAAEGYARSSGKPGICIATSGPGATNLVSGLADALLDSVPLVAITGQVPRRMIGTDAFQETPIVEVTRSITKHNYLVMDVEDIPRIIEEAFFLATSGRPGPVLVDVPKDIQQQLAIPNWEQAMRLPGYMSRMPKPPEDSHLEQIVRLISESKKPVLYVGGGCLNSSDELGRFVELTGIPVASTLMGLGSYPCDDELSLHMLGMHGTVYANYAVEHSDLLLAFGVRFDDRVTGKLEAFASRAKIVHIDIDSAEIGKNKTPHVSVCGDVKLALQGMNKVLENRAEELKLDFGVWRNELNVQKQKFPLSFKTFGEAIPPQYAIKVLDELTDGKAIISTGVGQHQMWAAQFYNYKKPRQWLSSGGLGAMGFGLPAAIGASVANPDAIVVDIDGDGSFIMNVQELATIRVENLPVKVLLLNNQHLGMVMQWEDRFYKANRAHTFLGDPAQEDEIFPNMLLFAAACGIPAARVTKKADLREAIQTMLDTPGPYLLDVICPHQEHVLPMIPSGGTFNDVITEGDGRIKY
stability of large subunit activity ([3]; absence of DTT, 4 day period (FIG. 6)): degraded | stability of large subunit ([3]; in the presence of 3 mM DTT, 1 month, stored at 4° C.): very stable
